According to patent US20180086836A1 (GLENMARK PHARMACEUTICALS S A, published 2018):
Residue numbers refer to the chain shown, from its start. Numbers in names are those of the source. Blank lines part the entries; values can stand above or below the binder they belong to.

How the values were obtained:
[1] = biological target: T1, recombinant human N-terminal CCR6 Fc (human); assay: SPR (Biacore) off-rate ranking of scFv on the human CCR6 N-terminal Fc fusion
T1 construct: also called human CCR6-Fc; hsCCR6-Nter-Fc

[2] = biological target: T2, human CCR6 (human, UniProt P51684 1-374); assay: flow cytometry on BAF cells transfected with human CCR6, hybridoma supernatant, anti-mouse IgG-PE
T2 construct: Full length human CCR6 on transfected BAF or CHO cells, or native on human PBMCs; also called hsCCR6; CCR6 receptor
T2 sequence: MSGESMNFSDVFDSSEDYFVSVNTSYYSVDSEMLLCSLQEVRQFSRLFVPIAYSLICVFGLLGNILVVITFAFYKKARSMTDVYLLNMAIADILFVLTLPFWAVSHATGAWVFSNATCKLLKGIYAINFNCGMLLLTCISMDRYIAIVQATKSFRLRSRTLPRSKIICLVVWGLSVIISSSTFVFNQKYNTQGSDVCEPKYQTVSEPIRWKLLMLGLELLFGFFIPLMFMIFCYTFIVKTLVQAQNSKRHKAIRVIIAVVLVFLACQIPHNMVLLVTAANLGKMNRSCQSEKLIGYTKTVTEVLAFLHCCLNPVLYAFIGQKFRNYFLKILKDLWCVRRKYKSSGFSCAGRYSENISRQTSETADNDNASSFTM
Experimental: Antibody titers, specificity and production by hybridomas and recombinant antibody candidates were determined by flow cytometry. Briefly, BAF cells transfected with human CCR6 (Generation of these transfected cells is detailed in example 1) were cultured and 2×10⁵ cells were distributed in a 96 well V bottom plate (TPP, Trasadingen, Switzerland), and centrifuged for three minutes at 1300 rpm; supernatants were discarded, cells were collected and analyzed by flow cytometry as described below. Cells were resuspended in 50 μl of hybridoma supernatant or in 50 μl of FACS buffer (PBS, 2% FBS, 10% Versene (Invitrogen, USA)) with 5 μg/mL of isotype control or commercial mouse anti-human CCR6 antibody (clone 11A9, BD Biosciences, Allschwil, Switzerland). Cells were incubated for 30 minutes on ice, washed two times and resuspended in 50 μl of FACS buffer. An anti-mouse IgG-Phycoerithrin-PE (BD Biosciences, Allschwil, Switzerland) diluted 1/200 was used to detect CCR6-specific mouse hybridoma and the isotype control antibody. Cells were incubated for 15 minutes on ice, washed once, resuspended in 400 μl of FACS buffer and analyzed on the FACS instrument (Cyan, Beckman Coulter International S.A., Nyon, Switzerland).

[3] = biological target: T1, recombinant human N-terminal CCR6 Fc; assay: SPR, human CCR6 N-terminal peptide Fc on the chip, FAB as analyte
[4] = biological target: T1, recombinant human N-terminal CCR6 Fc; assay: SPR (BIAcore 2000), Fc-fused human CCR6 N-terminal peptide immobilised on CM5, antibody as analyte, bivalent analyte model
Experimental: (§1) Kinetic binding affinity constants (KD) were measured on Fc-fused huCCR6 N-terminal and cynoCCR6 N-terminal peptides with the 4H11 VH5/VL1 IgG4hs antibody as analyte. Same measurements were performed using the 4H11 VH5/VL1 IgG1 antibody and chimeric 4H11 antibody for comparison. Measurements were conducted on a BIAcore 2000 (GE Healthcare—BIAcore, GE Healthcare Europe GmbH, Glattbrugg, Switzerland) at room temperature, and analyzed with the BiaEvaluation software (BIAcore; v4.1, GE Healthcare Europe GmbH) using a bivalent analyte kinetic affinity model.
(§2) A CM5 research grade sensor chip (GE Healthcare Europe GmbH; ref. BR-1000-14) was activated by injecting 35 μl of a 1:1 N-hydroxysulfosuccinimide (NHS)/1-Ethyl-3-[3-dimethylaminopropyl]carbodiimide Hydrochloride (EDC) solution (v/v; 5 μl/min flow-rate; on flow paths 1 and 2). Fc-fused human or cynomologus CCR6 N-terminal peptides were diluted to a final concentration of 25 nM in acetate buffer pH 4.5 (GE Healthcare Europe GmbH, BR-1003-50; one pH unit below pI) and subsequently immobilized on the previously activated CM5 sensor chip by injecting 20 μl on both flow path 1 and 2 (5 μl/min); this corresponded to approximately 300 response units (RUs). The human or cynomologus CCR6 N-terminal peptides coupled CM5 sensor chip was then deactivated by injecting 35 μl of ethanolamine solution (5 μl/min). […]

[5] = biological target: T3, recombinant cynomologus N-terminal CCR6 peptide Fc (cynomolgus monkey; human); assay: SPR (BIAcore 2000), Fc-fused peptide immobilized on CM5 chip, antibody as analyte, bivalent analyte model
T3 construct: It differs from the human construct only in the CCR6 N-terminus; also called Cyno CCR6-Fc; cynoCCR6-Nter-Fc
Experimental: as §1, §2

[6] = biological target: T1, recombinant human N-terminal CCR6 Fc; assay: as above
Experimental: as §1, §2

[7] = biological target: T3, recombinant cynomologus N-terminal CCR6 …; assay: SPR (BIAcore 2000), Fc-fused cynomolgus CCR6 N-terminal peptide immobilised on CM5, antibody as analyte, bivalent analyte model
Experimental: as §1, §2

[8] = biological target: T3, recombinant cynomologus N-terminal CCR6 …; assay: direct ELISA, Fc fusion coated at 2 µg/ml, anti-human F(ab')2-HRP
Experimental: (§3) FIG. 8: Direct binding ELISA on immobilized recombinant human N-terminal CCR6 Fc. Binding of humanized 4H11 H5L1 antibody on human N terminus fragment of CCR6 was measured by direct ELISA. Various concentrations (ranging from 10 to 0.00006 μg/ml) of humanized 4H11 H5L1 in IgG1 and IgG4HS backbones were incubated with 2 μg/ml of either recombinant human N terCCR6-Fc tagged protein (FIG. 8A) or recombinant cynomologus N-terminal peptide Fc (FIG. 8B), coated overnight at 4° C. in a 96-well plate. Binding of humanized 4H11 H5L1 antibody to Nter CCR6-Fc protein was detected by horseradish peroxidase (HRP)-conjugated anti-human (Fab)′2-specific antibody.
(§4) A binding ELISA was performed to test the reactivity of 4H11 VH5/VL1 IgG1 and 4H11 VH5/VL1 IgG4HS antibodies on peptides consisting of the N-terminal region of CCR6 from human and cynomologus species. Briefly, 96 well-microtiter plates (Costar USA, distributor VWR AG, Nyon, Switzerland) were coated with 100 μl of recombinant human and cynomologus N-terminus peptide-Fc at 2 μg/ml in PBS. Plates were incubated overnight at 4° C. and were then blocked with PBS 2% BSA (Bovine Serum Albumine, PAA Laboratories, Pasching, Austria) at room temperature (RT) for one hour. The blocking solution was removed and various concentrations of 4H11 VH5/VL1 IgG1 and 4H11 VH5/VL1 IgG4HS were added. The plates were incubated at RT for 1 hour, then washed six times with PBS 0.01% Tween-20 (Sigma-Aldrich Chemie GmbH, Buchs, Switzerland) and a goat-anti human Ig F(ab′)2 fragment specific-HRP (Jackson ImmunoResearch Europe Ltd, Newmarket, UK). After washing, the plates were incubated with TMB substrate (Bio-Rad Laboratories AG, Reinach, Switzerland) to reveal antibody binding. The reaction was stopped by adding 2M H₂SO₄ and the optical density was read at 450 nm (OD 450 nm) on a Synergy HT2 spectrophotometer (Biotek, USA; distributor: WITTEC AG, Littau, Switzerland).

[9] = biological target: T1, recombinant human N-terminal CCR6 Fc; assay: as above
Experimental: as §3, §4

[10] = biological target: T2, human CCR6; assay: flow cytometry blocking assay on CCR6-transfected BAF cells; blocked ligand: recombinant human CCL20 at 0.5 µg/ml, detected with biotinylated anti-CCL20 and streptavidin-APC
Experimental: Cells transfected with CCR6 were incubated at 4° C. for 20 minutes with humanized 4H11-VH5/VL1 serially diluted (from 100 to 0.00001 μg/ml) in FACS buffer containing 0.1% of azide. Cells were centrifuged and incubated at 4° C. for 20 minutes with 0.5 μg/ml of recombinant human CCL20. To detect CCL20 bound to CCR6, cells were incubated with a biotinylated goat anti-human CCL20, followed by incubation with Allophycocyanin (APC)-labelled Streptavidin diluted at 1/100 in FACS buffer containing 0.1% of azide. To evaluate blocking potential of humanized 4H11 VH5/VL1 IgG4HS, percentage of CCL20 was measured at each concentration of antibody. Maximum binding activity of CCL20 to CCR6 was calculated as a percentage of that seen for the isotype control.
To determine whether 4H11 VH5/VL1 IgG4HS neutralizes CCR6-mediated biological function through a direct inhibition of CCL20-CCR6 interaction, an assay using flow cytometry approach was set up. Briefly, BAF cells transfected with CCR6 were counted and diluted at 1*10⁶ cells/ml in FACS buffer containing 0.1% of azide. […] Then, CCL20 was detected using a biotinylated anti-human CCL20 (R&D Systems, clone BAF360) followed by allophycocyanin (APC)-labelled streptavidin diluted in FACS buffer+0.1% azide at 1 μg/ml and 1/100, respectively. Cells were washed two times in FACS buffer, 0.1% azide and samples were analysed by flow cytometry. […]

binding result [2]: binds
B2: 4H11 (antibody, V domains shown)
VH: EVKLVESGGGLVQPGGSLKLSCATSGFSFSDYYMYWIRQTPEKRLEWVAYITNGGITYYPDTVKGRFTISRDNAKNTLYLQMSRLRSEDTAMYYCTSPLRGAWFAYWGQGTLVTVSS
VL: DVIMTQSPLSLPVSLGDQASISCRSSQSIVHSNGNTYLEWYLQKPGQSPKLLIYKVSNRFSGVPDRFSGSGSGTDFTLKISRVEAEDLGLYYCFQGSHVPLTFGAGTKLEIK
notes: parent of the chimeric 4H11 antibody m1; also called murine antibody 4H11; hybridoma clone 4H11

binding result [3]: binds
B3: VH5/VL1 L1-G29A FAB (Fab, V domains shown)
VH: EVQLVESGGGLVQPGGSLRLSCAASGFSFSDYYMYWVRQAPGKGLEWVSYITNGGITYYPDSVKGRFTISRDNSKNTLYLQMNSLRAEDTAVYYCTSPLRGAWFAYWGQGTLVTVSS
VL: DVVMTQSPLSLPVTLGQPASISCRSSQSIVHSNANTYLEWYQQRPGQSPRLLIYKVSNRFSGVPDRFSGSGSGTDFTLKISRVEAEDVGVYYCFQGSHVPLTFGQGTKLEIK
notes: VH5/VL1 FAB fragment with G29A in CDR-L1

Further lines, the binder ahead of its results:

B1: VH5/VL1-L3-G8 scFv variant (scFv)
scFv: EVQLVESGGGLVQPGGSLRLSCAASGFSFSDYYMYWVRQAPGKGLEWVSYITNGGITYYPDSVKGRFTISRDNSKNTLYLQMNSLRAEDTAVYYCTSPLRGAWFAYWGQGTLVTVSSGGGGSGGGGSGGGGSTDVVMTQSPLSLPVTLGQPASISCRSSQSIVHSNGNTYLEWYQQRPGQSPRLLIYKVSNRFSGVPDRFSGSGSGTDFTLKISRVEAEDVGVYYCFQGTYLPLTFGQGTKLEIK
binding result [1]: binds

B4: 4H11 VH5/VL1 IgG4HS antibody (antibody, V domains shown)
VH: B3 VH
VL: B3 VL with A34G
notes: also called humanized 4H11 H5L1 IgG4HS; humanized 4H11-VH5/VL1
koff [4]: 0.000798 s⁻¹ | kon [4]: 510000 M⁻¹ s⁻¹ | Kd [5]: 4.67 nM | Kd [6]: 1.56 nM | koff [7]: 0.0015 s⁻¹ | kon [7]: 320000 M⁻¹ s⁻¹ | EC50 (read off the curve) [8]: ~0.2 µg/mL | EC50 (read off the curve) [9]: ~0.06 µg/mL | IC50 (read off the curve) [10]: ~0.5 µg/mL

B5: 4H11 VH5/VL1 IgG1 antibody (antibody, V domains shown)
VH: B3 VH
VL: DVVMTQSPLSLPVTLGQPASISCRSSQSIVHSNGNTYLEWYQQRPGQSPRLLIYKVSNRFSGVPDRFSGSGSGTDFTLKISRVEAEDVGVYYCFQGSHVPLTFGQGTKLEIKR
notes: also called H5/L1; VH5/VL1 antibody
EC50 (read off the curve) [8]: ~0.2 µg/mL | EC50 (read off the curve) [9]: ~0.07 µg/mL
